Experiment: soluble on expression in E. coli; label from the status in PepcDB or PDB records

Sequence | soluble on expression in E. coli
MGSDKIHHHHHHMDNDWIADYLRPRLARDNGEHLSRQLYRQLRELIGQRRLAGGSVLPASRALAQAMQLGRNTVLSAYDQLAAEGYLESRHGSGTYVCDVFTNSTSQTSHSTAPARPLSQRGQRLTASSRLPVRKLGAFVPGLPELELFPHKAWQQCLARQQRSAPLEWLHYQHQGGLPALQSALIQYLYLTRSVRCEPEQIIIAPGAQNALTLLAQLLADPGDAIWLEEPGYAGAQAAMQAAGLRCQAIRVDEQGLRPDPEAAPPRIIYVTPAHQYPTGAVMALPRRLELLAHARRHGSWIIEDDYDGEFCYASAPLAALQSLDRDGRVIYLGTFSKVMFPSLKLAYLVLPPELVDSYRRCQARLQGEGSYLQQAAVADFIAQGHFARHIRHMRELYQRRQQLLKHAADQYLGHAMSLHGGDAGMHLLAELPDGFDEWELQAAAAERLLWLRPLARHFLDTPYRNGLVLGYAGIDDHAIRPAVQQLADLLETRLK | not soluble
MGSDKIHHHHHHMVVNLTYMLNTEDRKFIIDSVKKGYKVTELARMFNVTPRRIQQILHESEMPESAKDSELTDEEKKFIDDLWDRYRIGSRTIYYLLRSKGLNVSYYKIYNYMKMKRMVQIKDNALIVNGKKAEPPLSTVLLDYHQKNFNDQYAIFCVDMTTKKILSYAESVKITSDVVSGVL | not soluble
MSLKQIVGHKLLNDVIRPLKKGDGRSAWNVLIVDTLAMRMLSSCCKMHNIMEEGITIVEDLNKRREPLPTLEAIYLIAPTAESIDKLIQDYCARNLYKCAHVFFTEACSDQLFSTLSKSAAARFIKTLKEINIAFTPYESQVFNLDSPDTFFLYYNAQKQGGLTSNLERIAEQIATVCATLGEYPSLRYRADFERNVELGHLVEQKLDAYKADDPSMGEGADKARSQLIIIDRGYDAITPLLHELTLQAMCYDLLGIENDVYKYETGGSDENLEKEVLLDENDDLWVEMRHKHIAVVSQEVTKNLKKFSESKGNKGTMDSKSIKDLSMLIKRMPQHKKELNKFSTHISLAEECMKQYQQGVDKLCKVEQDLSTGIDAEGERVRDAMKLMVPLLIDPAVRCEDRLRLILLYILSKNGITDENLNKLLQHANISMADKETITNAAYLGLNIVTDTGRKKTWTPTKKERPHEQVYQSSRWVPVIKDIIEDAIDERLDTKHFPFLAGRQVNQGYRAPASARYGQWHKERGQQSNYRSGPRLIIYIIGGVTFSEMRACYEVTAARKPWEVVIGSDRIITPDKFLTNLRDLNKPRDI | not soluble
MNAEIASEIVAEIPLWSQELPDTQEIIASLISSNLFPLIYTEQDYLEIANASAGLYISDIIHCLTDIRKNHDLGNSSEIAKLLLAKKIQLLNRLYDIEFLPPPKVQLGGLELMQQSFKKFKRLLTPRAKQYNLRVPKGIMLEHHHHHH | not soluble
MAHHHHHHMQRNWVLLPQTVRAGDAPKSSAVRTPTRPLPYVCLKSNDGMEFVLPEVAARQSKMLAMLLDAVYSLPERGGFAEPTNARGEQHTTVHASNNIGTMPCIPLEVLSGRILELVCRYLVQRSTSDVNSTDEFALLGELNPTSSSDQDIVLGLLMASDYLDC | soluble
MAQLYYRYGTMNSGKTIEILKVAYNYEEQGKGVVIMTSALDTRDGVGYVSSRIGMKRPALAIEETTDIFGYIRDLPEKPYCVLVDEAQFLKRHHVYDLARVVDELDIPVMAFGLKNDFRNELFEGSKYLLLLADKIDEIKTICQYCKKKATMVLRTQDGLPVYDGEQIQIGGNETYISVCRKHYFAPMITSNKEQNYDN | not soluble
MSSQRWLWRNQHSVQTNIGSREKDLKITKTKKIKKKHERAYELLAEAAYSDPFAALGPFIDDGEGSLRVWMPGANKVELLVNGEPRVALERDGDSGFILKEQRDLHLTHYRLAVDWNGVEQIIDDPYQYHNIYQEYEHLHTPKDM | not soluble
MGSDKIHHHHHHMIVETMTMVEFEEGLKRTRTVFVPFGSVEEHGCHLPLSTDTIQAYEVGKKAALQISLFVAPPIHYGSCRSTSCHPGTISITTATLKCLMKDIVRSLYAQGMRNFIILTGHAGGSHRMALQDAGEELLPEIPDIRIAVVTEYELASREGKGIIETEGDAHAGEIETSRILHTHPHLVQGRGEREFPSFPTGILVRNKRKYWPNGVWGDPAKATAEKGKRLEELVVKKIVELAAALEQFQE | not soluble
GSHMASDLKNPYERIQAEAYDAMSGIQTEGTDDDGGGDNIGWINDGDWVKYERVHFERDASSIEVRVASDTPGGRIEIRTGSPTGTLLGDVQVPNTGGWQQWQTVTGNVQIQPGTYDVYLVFKGSPEYDLMNVNWFVFRANG | soluble
GYQALEKYSRDLTALARAGKLDPVIGRDTEIRRAIQILSRRTKNNPILLGDPGVGKTAIVEGLAIKIVQGDVPDSLKGRKLVSLDLSSLIAGAKYRGDFEERLKSILKEVQDAEGQVVMFIDEIHTVVGAGAVAEGALDAGNILKPMLARGELRCIGATTVSEYRQFIEKDKALERRFQQILVEQPS | soluble
MEYWHYVETTSSGQPLLREGEKDIFIDQSVGLYHGKSKILQRQRGRIFLTSQRIIYIDDAKPTQNSLGLELDDLAYVNYSSGFLTRSPRLILFFKDPSSKDELGKSAETASADVVSTWVCPICMVSNETQGEFTKDTLPTPICINCGVPADYELTKSSINCSNAIDPNANPQNQFGVNSENICPACTFANHPQIGNCEICGHRLPNASKVRSKLNRLNFHDSRVHIELEKNSLARNKSSHSALSSSSSTGSSTEFVQLSFRKSDGVLFSQATERALENILTEKNKHIFNQNVVSVNGVDMRKGASSHEYNNEVPFIETKLSRIGISSLEKSRENQLLNNDILFNNALTDLNKLMSLATSIERLYKNSNITMKTKTLNLQDESTVNEPKTRRPLLILDREKFLNKELFLDEIAREIYEFTLSEFKDLNSDTNYMIITLVDLYAMYNKSMRIGTGLISPMEMREACERFEHLGLNELKLVKVNKRILCVTSEKFDVVKEKLVDLIGDNPGSDLLRLTQILSSNNSKSNWTLGILMEVLQNCVDEGDLLIDKQLSGIYYYKNSYWPSHI | soluble
MISMKPRYKPDWESLREHTVPKWFDKAKFGIFIHWGIYSVPGWATPTGELGKVPMDAWFFQNPYAEWYENSLRIKESPTWEYHVKTYGENFEYEKFADLFTAEKWDPQEWADLFKKAGAKYVIPTTKHHDGFCLWGTKYTDFNSVKRGPKRDLVGDLAKAVREAGLRFGVYYSGGLDWRFTTEPIRYPEDLSYIRPNTYEYADYAYKQVMELVDLYLPDVLWNDMGWPEKGKEDLKYLFAYYYNKHPEGSVNDRWGVPHWDFKTAEYHVNYPGDLPGYKWEFTRGIGLSFGYNRNEGPEHMLSVEQLVYTLVDVVSKGGNLLLNVGPKGDGTIPDLQKERLLGLGEWLRKYGDAIYGTSVWERCCAKTEDGTEIRFTRKCNRIFVIFLGIPTGEKIVIEDLNLSAGTVRHFLTGERLSFKNVGKNLEITVPKKLLETDSITLVLEAVEEHHHHHH | soluble
MSIATTPLHTALSLPQIQSFAASDMAAIDTLIHDRLTSDIVLINQIADHIICSGGKRLRPMLTMLAGHAIGPTGPHHHQLAAIIEFIHTATLLHDDVVDGSELRRSRSTANALWGNAPSVLVGDFLYSRSFQLMTELANLEVMQILAETTNRISEGEVLQLLHVHNPDTDETTYLSVIERKTAILFAAAAQLGALASHADTQTQTRMYEYGMQLGYAFQITDDVLDYTANNSQLGKNLGDDLAEGKATLPVIHAMTHSDAATCERLRMIISKGDSDAMPEVLNAIRTTGSLDYSRQRASAYAATAERALDGLPETEAVAALRGLARYAVQRTY | not soluble
MEATLPVLDAKTAALKRRSIRRYRKDPVPEGLLREILEAALRAPSAWNLQPWRIVVVRDPATKRALREAAFGQAHVEEAPVVLVLYADLEDALAHLDEVIHPGVQGERREAQKQAIQRAFAAMGQEARKAWASGQSYILLGYLLLLLEAYGLGSVPMLGFDPERVRAILGLPSRAAIPALVALGYPAEEGYPSHRLPLERVVLWR | soluble
MSLDRVEVLGVEFVEFTADQTEAEALGSLLGAMGFRAVASHREKAVTLWRQGCDHRGINVVINTEQKGFAHSSYLVHGASAYAIGLKVPDASAAVERARALGAEIFLPESGEGEGAMAAIRGMGGGLIYFVDEIDDVWSREFVAPGDDRQPAATLVAIDHVAQSMKEEQLPSWLLFYTSILDADKLAQVDIVDPAGLVRSQVVENASGTLRLTLNGADNHREGHHHHHH | not soluble
MSLNKIKRITAYKIDLPLKEGSYNWSEGKSVSVFDSTVIAVETENGTIGYGECCPLGPFYLPSYAEGVRAGIKELGPHLIGLDATNLFYLNHIMDRSLKGHPYVKSPIDVACWDIKGKTAGLPVSNLLGGVYDEDFILYRAISQDQPEAMADKVKEYRDQGYRRFQLKVGGNADEDIKRIRSVAEKMETGDKLIADANTGWLTHEAVRVVNGVSDIDVYIEQPCLSYDECFAVRKKTNHPFILDESINNMRTLLKAYHDQAMDAVNIKISKFGGITKAALARDICSELGIAMTIEDTWGGDIVTAAIAHLAHTTDPKLLFTATDFNSYVTVDIASGAPKRENGRMKSSKDPGLGIKPLSEVLGDSVVDIEGHHHHHH | not soluble
MMKEQNIPQDSLIAGYLPADYCDSFSRNVVSEKAITSDEFFDMAFNHSPGWVNGLMKLRNAIVKPLGLEVGMRFADTICEQNAQEVVFGMPDKHLTFHASLWCGEKEPGGQTFTITTVVKFNNRLGRLYFFFIRPFHKVIIRSMLKRVAKRLK | not soluble
MGSDKIHHHHHHMQFADFWYIVALSNQLQPNKVLPRTVLGEWLAIFRGEDGQPVALRDRCLHRNSRLSSGKICNGALQCPYHGWVYDGVGNVIAVPAEGNDFKPSPQRRAKCYATKEQDGYVYVRLADTPSVDFEPFSMPHYGQTGWETVRVINRFANNVTNCAENFIDIPHTAFVHPGVFRTSRQQKLEMTVERWNGSVLVEYRNENSNLGWYSRFLNLQSAEIKHSDRFYMPNITSVEYKMARNRHLFITSQSIPETDNSTLVYTDVTYNYGIWNKLARPFVRWTAQHIIRQDVEILGIQGEAIAKYGTQFYNTPADTIHIFVESIMAAISRGEDPRLLPNQSVKVTFWV | not soluble
MGSDKIHHHHHHMKLVDSIYGTYTVEPVISELIDSAPVQRLKGIHQGGACYIVKPSWNVTRFEHSIGVMLLIRKLGGSLEEQIAGLLHDVSHTAFSHVIDYVLAEEEEDYHEQIYEQVIRASEIPHILDKYGFDLERIVLNHSCWTLLEQPSPSLCADRIDYTLRDLYTYGHINKQEVDDFIANLIVVDGIISTSSVAGAEWFVRAYYKEVIDFFLDPLNVYGSSVLTSVLKSAVERKALGLDDFLKTDEELMEQLQRLNDDSIQKQLATLHPHVNVRENENHYHIHKTNKLRLIDPHVYLDGTFQRISSLSKQVKKWNEEAQRRADRGAYVEVLSS | not soluble
MRYCQFEGCSNTTEKGAYCSEHARKSRKKKKPINVYHHDNKSFYRTKEWQDVADFVYEREGGCCQRCGRFVFGRQAHRHHVIPIKKNEMLKLDPNNIRLLCPKCHVIEENEADEKKVFPSYFKKLEHHHHHH | soluble
MVCGKKRVGEELRCKSCGSPFEIRTGFHYRENIEDNFPYIKNMISLGESETPIFHGDDFDLKLDYMLPTFSYKDRGSRILISHIADIRDSYGITRISEDSSGNAGASIAAYGSAAGLAVDIYVPETVAGRKFSQIQAYGANVIKVKGSREDVQSAAERSESFYASHVLRPEFRDGIRTLAYEIYRQYDRMPRNIYIPVSAGTLLLGLYSGLRHLMESGEIAEMPAIVAVQTEAVSPLCAKINGLNYDPDNKLSSIADALVSRKPVLLQKMYQVISEYGRCMTVSDDEIIEARNRLAKKGFLVEYSSATVYAAFRKKPQENSLLVLTGSGLKNDS | not soluble
